This is an account of results in patent US20090220587A1.

* marks the point of attachment. X1 = 1,2‑dioleoyl‑sn‑glycero‑3‑succinate, CCCCCCCC/C=C\CCCCCCCC(=O)OC[C@H](COC(=O)CCC(=O)*)OC(=O)CCCCCCC/C=C\CCCCCCCC

Test [1] addresses endothelin receptors on A549 human lung epithelial carcinoma cells (human). The test is described as follows: cell-based or functional assay.
In test [2] the target is endothelin receptors on rat peritoneal mast cells (RBL) (rat). The test can be described thus: cell-based or functional assay.

B1: liposome complex comprising the conjugated endothelin peptide ligand 1,2-dioleoyl-sn-glycero-3-succinate-Cys-His-Leu-Asp-Ile-Ile-Trp-COOH (peptide)
peptide: X1-CHLDIIW-OH
modifications: not fully specified; printed as 1,2-dioleoyl-sn-glycero-3-succinate-Cys-His-Leu-Asp-Ile-Ile-Trp-COOH; also: lipid conjugate incorporated in liposomes
B1 gave a recovery of endothelin receptors after internalization in test [1] of 100%. Besides, the reduction of endothelin receptors after pre-exposure to unlabeled liposomes in test [1] and in test [2] was 50% each time.
